Assay results as given in US5681715.

Legend:
[1] = biological target: LipA lipase of Pseudomonas cepacia DSM 3959 produced in E. coli from pAHE2 or pAHE10 (inclusion bodies) (Pseudomonas cepacia DSM 3959) (UniProt P22088)
[2] = biological target: LipA lipase of Pseudomonas cepacia DSM 3959 produced in E. coli from pAHE2 or pAHE10 (inclusion bodies) (Pseudomonas cepacia DSM 3959) (UniProt P22088); remark: listed apart in the source
[3] = biological target: intracellular prelipase from P. cepacia DSM 3959 (Pseudomonas cepacia DSM 3959) (UniProt P22088)
[4] = biological target: mature, extracellular lipase from P. cepacia DSM 3959 (Pseudomonas cepacia DSM 3959) (UniProt P22088)
[5] = biological target: mature LipA produced in E. coli without signal peptide (pAHE19, pAHE22) (Pseudomonas cepacia DSM 3959) (UniProt P22088)
[6] = biological target: LipD, lipase from P. cepacia DSM 3401 (Pseudomonas cepacia DSM 3401)
[7] = biological target: LipD, lipase from P. cepacia DSM 3401 (Pseudomonas cepacia DSM 3401); remark: listed apart in the source
[8] = biological target: LipA-LipD hybrid lipase (pAHE16, pAHE23) (Pseudomonas cepacia DSM 3959; Pseudomonas cepacia DSM 3401) (UniProt P22088)

For “LimA, Pseudomonas cepacia lipase modulator (chaperone molecule) from P. cepacia DSM 3959 (from UniProt P22089)”, the No of LU recovered after denaturation and renaturation (pH stat), inclusion bodies undiluted [1] was 16 LU, the No of lipase units recovered after denaturation and renaturation, inclusion bodies diluted 1:10 [2] was 7.8 LU and the LU after renaturation [3] was 0 LU. For the same substance, the LU after renaturation [4] was 1.3 LU, the LU after renaturation [5] was 0.75 LU and the No of LU recovered (+UREA) and % recovery after denaturation and renaturation, first preparation [6] was 0.45 LU. For the same substance, the LU after renaturation and % recovery, new preparation [7] was 56 LU and the LU after renaturation [8] was 1 LU.
